{"source": "paper PMC5458251", "target": "SEPT9_i1-YN (split-YFP chimera: septin 9 isoform 1 with EE tag, linker and N-terminal YFP fragment on its C-terminus) (human) (UniProt Q9UHD8)", "sequence (Q9UHD8 whole entry, change not shown, the tested form may be a part, canonical isoform)": "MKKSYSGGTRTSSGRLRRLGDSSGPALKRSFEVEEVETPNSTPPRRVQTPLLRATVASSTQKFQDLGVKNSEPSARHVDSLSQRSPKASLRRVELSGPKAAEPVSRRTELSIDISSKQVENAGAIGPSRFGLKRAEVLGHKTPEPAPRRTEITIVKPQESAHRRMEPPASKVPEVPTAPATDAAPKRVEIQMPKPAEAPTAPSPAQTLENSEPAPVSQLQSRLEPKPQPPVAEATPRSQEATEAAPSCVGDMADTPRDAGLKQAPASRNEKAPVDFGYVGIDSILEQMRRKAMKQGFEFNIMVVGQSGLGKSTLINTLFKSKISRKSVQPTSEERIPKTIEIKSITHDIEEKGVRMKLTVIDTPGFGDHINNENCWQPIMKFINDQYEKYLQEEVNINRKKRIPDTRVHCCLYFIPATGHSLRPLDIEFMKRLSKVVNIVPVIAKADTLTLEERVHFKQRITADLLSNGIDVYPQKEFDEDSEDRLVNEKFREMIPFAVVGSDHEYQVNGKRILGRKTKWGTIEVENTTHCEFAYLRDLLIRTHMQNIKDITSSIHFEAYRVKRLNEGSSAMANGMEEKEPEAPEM", "assay": "split reporter (BiFC, NanoBiT); split YFP (YN/YC) in live PC-3 cells, transient co-transfection with 10-fold more HIF-1α plasmid than SEPT9_i1 plasmid, confocal imaging 48 h after transfection; cells treated overnight with 250 μM CoCl2, 100 μM DBM, DBM with 1 μM 17-AAG or 150 μM FCF, or 0.01% DMSO"}
{"substance": "YC-HIF-1α-DPM (YC chimera of double proline mutated HIF-1α) (from UniProt Q16665 1-826) (natural protein)", "values": [{"measurement": "fold BiFC signal against YC-ΔHLH-HIF-1α with SEPT9 i1-YN", "value": 11, "unit": "fold"}]}
